Assay results as given in PMC5119942 (The Journal of Cell Biology, 2016).

What was measured:
[1] = biological target: T1, His6-Trs31 (recombinant) (yeast, UniProt Q03337 1-283); assay: co-purification of co-expressed subunits
T1 sequence (looked up): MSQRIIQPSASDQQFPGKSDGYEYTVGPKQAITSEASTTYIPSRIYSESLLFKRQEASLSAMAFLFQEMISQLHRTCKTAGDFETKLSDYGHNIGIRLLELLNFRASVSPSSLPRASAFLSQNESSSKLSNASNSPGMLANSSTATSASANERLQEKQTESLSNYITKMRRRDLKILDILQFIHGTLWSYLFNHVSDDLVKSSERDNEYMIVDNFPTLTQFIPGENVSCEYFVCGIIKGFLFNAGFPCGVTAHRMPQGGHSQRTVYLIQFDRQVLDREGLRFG

[2] = biological target: T2, Trs130-TAP (recombinant) (yeast, UniProt Q03660 1-1102); assay: co-purification of co-expressed subunits
T2 sequence (looked up): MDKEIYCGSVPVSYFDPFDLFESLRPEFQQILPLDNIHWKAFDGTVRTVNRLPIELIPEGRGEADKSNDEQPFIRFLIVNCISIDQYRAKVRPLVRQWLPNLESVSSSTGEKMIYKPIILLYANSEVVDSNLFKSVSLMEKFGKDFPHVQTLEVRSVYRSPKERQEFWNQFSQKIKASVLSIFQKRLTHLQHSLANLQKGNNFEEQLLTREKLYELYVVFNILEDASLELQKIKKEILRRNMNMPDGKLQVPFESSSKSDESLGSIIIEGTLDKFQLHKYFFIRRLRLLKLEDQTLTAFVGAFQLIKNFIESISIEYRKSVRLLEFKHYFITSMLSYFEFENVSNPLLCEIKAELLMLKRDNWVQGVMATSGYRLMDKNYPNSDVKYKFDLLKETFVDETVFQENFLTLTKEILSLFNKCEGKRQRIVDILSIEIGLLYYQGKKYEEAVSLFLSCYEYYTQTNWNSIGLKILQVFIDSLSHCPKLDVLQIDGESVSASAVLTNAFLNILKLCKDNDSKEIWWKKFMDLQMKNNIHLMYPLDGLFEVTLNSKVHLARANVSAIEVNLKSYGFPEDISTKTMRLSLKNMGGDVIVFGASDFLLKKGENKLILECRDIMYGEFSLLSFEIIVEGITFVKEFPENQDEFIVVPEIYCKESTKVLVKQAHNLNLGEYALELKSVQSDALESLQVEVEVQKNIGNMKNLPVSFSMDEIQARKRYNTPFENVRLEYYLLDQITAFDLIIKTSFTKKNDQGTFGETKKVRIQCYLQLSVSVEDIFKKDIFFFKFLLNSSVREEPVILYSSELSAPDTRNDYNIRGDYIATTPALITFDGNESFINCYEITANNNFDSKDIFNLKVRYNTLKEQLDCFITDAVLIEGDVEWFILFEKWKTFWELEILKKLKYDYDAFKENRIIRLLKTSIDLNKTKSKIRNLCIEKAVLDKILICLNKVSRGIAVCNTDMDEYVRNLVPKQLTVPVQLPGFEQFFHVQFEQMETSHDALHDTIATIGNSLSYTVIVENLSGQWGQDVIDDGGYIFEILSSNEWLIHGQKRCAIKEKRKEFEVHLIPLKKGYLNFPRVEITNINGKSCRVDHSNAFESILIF

B1: Bet3 (recombinant) (natural protein, yeast, UniProt P36149 1-193, looked up)
chain: MVSTTQSRSLKAMGEEIWKNKTEKINTELFTLTYGSIVAQLCQDYERDFNKVNDHLYSMGYNIGCRLIEDFLARTALPRCENLVKTSEVLSKCAFKIFLNITPNITNWSHNKDTFSLILDENPLADFVELPMDAMKSLWYSNILCGVLKGSLEMVQLDCDVWFVSDILRGDSQTEIKVKLNRILKDEIPIGED
B1 was tested, and the “stoichiometry N” value [1] was 2 and the “stoichiometry N” value [2] was 2.
